Data as given in patent US20210139588A1 (STCUBE, published 2021).

B1: 4NQ mutant (unglycosylated) PD-1 expressed on 293T cells (PD-1-Flag) (receptor)
chain: LDSPDRPWNPPTFSPALLVVTEGDQATFTCSFSQTSESFVLNWYRMSPSQQTDKLAAFPEDRSQPGQDCRFRVTQLPNGRDFHMSVVRARRQDSGTYLCGAISLAPKAQIKESLRAELRVTERRAEVPTAHPSPSPRPAGQFQTLVVGVVGGLLGSLVLLVWVLAVICSRAARGTIGARRTGQPLKEDPSAVPVFSVDYGELDFQWREKTPEPPVPCVPEQTEYATIVFPSGMGTSSPARRGSADGPRSAQPLRPEDGHCSWPL
notes: also called PD-1 4NQ; not shown: Flag tag
B2: anti-glycPD-1 monoclonal antibody STM432 (antibody, V domains shown)
VH: EVMLVEPGGGLVKPGGSLKLSCAASGFTFSSYGMSWVRQTPEKRLEWVATISGGGANTYYPDTVKGRFTISRDNAKNTLYLQMNSLRSEDTALYYCARYGYDTVFAYWGQGTLVTVSA
VL: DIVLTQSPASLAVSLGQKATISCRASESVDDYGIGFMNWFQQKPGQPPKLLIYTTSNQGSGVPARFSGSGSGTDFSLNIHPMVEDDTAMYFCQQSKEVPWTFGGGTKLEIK
notes: Mouse monoclonal antibody from a hybridoma; also called MAb STM432

What was measured:
[1] = molecular target: T1, recombinant human PD-L1-Fc chimera protein (R&D Systems) (human, UniProt Q9NZQ7 19-239); assay: live-cell imaging (IncuCyte) of labeled PD-L1-Fc on 293T cells
T1 construct: Bought reagent; Used fluorescently labeled or detected with anti-human-Fc Alexa Fluor 488; also called PD-L1-Fc fusion protein; not shown: Fc portion, detected with anti-human IgG
T1 sequence (Q9NZQ7 19-239 limits assumed, change not shown): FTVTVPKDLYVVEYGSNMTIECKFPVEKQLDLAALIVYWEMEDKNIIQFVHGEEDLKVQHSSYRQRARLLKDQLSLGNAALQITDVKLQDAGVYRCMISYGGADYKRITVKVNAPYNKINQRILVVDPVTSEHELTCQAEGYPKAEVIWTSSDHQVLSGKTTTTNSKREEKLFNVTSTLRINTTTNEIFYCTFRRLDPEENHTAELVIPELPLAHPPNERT
Description: PD-L1 and PD-1 (PD-L1/PD-1) interaction assay. […] The secondary antibodies used were anti-human Alexa Fluor 488 dye conjugate (Life Technologies). The fluorescence intensity of Alexa Fluor 488 dye was then monitored using a real-time microscope IncuCyte (Essen BioScience, Ann Arbor, Mich., USA).
Ligand and receptor binding was quantified by IncuCyte™Zoom every hour, according to the manufacturer's instructions.

[2] = molecular target: T2, N49Q mutant PD-1-Fc protein (Homo sapiens (Human), UniProt Q15116 25-170); assay: Western blot of PD-1-Fc proteins
T2 construct: also called PD-1 with a mutant glycosylation site at position 49; not shown: Fc portion

[3] = molecular target: T3, N74Q mutant PD-1-Fc protein (Homo sapiens (Human), UniProt Q15116 25-170); assay: Western blot of PD-1-Fc proteins
T3 construct: also called PD-1 with a mutant glycosylation site at position 74; not shown: Fc portion

[4] = molecular target: T4, PD-1-His (Homo sapiens (Human), UniProt Q15116 25-170, limits assumed); assay: BIACORE (SPR), antigen PD-1-His
T4 construct: also called glycosylated PD-1 (BIACORE antigen); not shown: His tag

[5] = molecular target: T5, wild type (glycosylated) PD-1 expressed on 293T cells (PD-1-Flag) (human, UniProt Q15116 25-288, N-linked glycosylation at N49, N58, N74 and N116); assay: flow cytometry on 293T cells; reference: 4NQ PD-1 cells
T5 construct: also called PD-1 WT; not shown: Flag tag
Description: (§1) Flow Cytometry. Cells overexpressing PD-1 wild type and mutant proteins or control vector were isolated by trypsinization and collected in Cell Staining Buffer (CSB) (BioLegend, San Diego, Calif., US) at 2×10⁶ cells/mL. 50 μL of cells were aliquoted to a 96 well round-bottom plate, to which 50 μL of 20 μg/mL primary antibody was added, followed by gentle mixing and 1 h incubation at 4° C. in the dark. Cells were washed with CSB, incubated with anti-mouse IgG-PE conjugate (10 μg/mL) with DAPI (1:100) 30 minutes 21° C. in the dark. Cells were washed and data acquired using Guava EasyCyte HT (Millipore Darmstadt, Del.) or FACS Celesta (Becton Dickinson, Franklin Lakes, N.J., US) flow cytometer.

[6] = molecular target: T5, wild type (glycosylated) PD-1 expressed …; assay: flow cytometry on 293T cells expressing the PD-1 form, labeled secondary antibody
Description: as §1

[7] = molecular target: T6, N49Q mutant PD-1 expressed on 293T cells (PD-1-Flag) (human, UniProt Q15116 25-288); assay: as above
T6 construct: also called N49Q PD-1; not shown: Flag tag
Description: as §1

[8] = molecular target: T7, N58Q mutant PD-1 expressed on 293T cells (PD-1-Flag) (human, UniProt Q15116 25-288); assay: as above
T7 construct: also called N58Q PD-1; not shown: Flag tag
Description: as §1

[9] = molecular target: T8, N74Q mutant PD-1 expressed on 293T cells (PD-1-Flag) (human, UniProt Q15116 25-288); assay: as above
T8 construct: also called N74Q PD-1; not shown: Flag tag
Description: as §1

[10] = molecular target: T9, N116Q mutant PD-1 expressed on 293T cells (PD-1-Flag) (human, UniProt Q15116 25-288); assay: as above
T9 construct: also called N116Q PD-1; not shown: Flag tag
Description: as §1

[11] = molecular target: B1; assay: as above
Description: as §1

[12] = molecular target: B1; assay: flow cytometry on 293T cells expressing 4NQ PD-1, anti-mouse IgG-PE secondary
Description: as §1

[13] = molecular target: T6, N49Q mutant PD-1 expressed on 293T …; assay: flow cytometry on 293T cells expressing N49Q PD-1, anti-mouse IgG-PE secondary
Description: as §1

[14] = molecular target: T8, N74Q mutant PD-1 expressed on 293T …; assay: flow cytometry on 293T cells expressing N74Q PD-1, anti-mouse IgG-PE secondary
Description: as §1

[15] = molecular target: T9, N116Q mutant PD-1 expressed on 293T …; assay: flow cytometry on 293T cells expressing N116Q PD-1, anti-mouse IgG-PE secondary
Description: as §1

[16] = molecular target: T5, wild type (glycosylated) PD-1 expressed …; assay: inhibition of PD-L1-Fc binding to 293T cells overexpressing PD-1, IncuCyte fluorescence imaging
Description: Green fluorescence was measured every 2 hours by IncuCyte™ Zoom device and quantitated by IncuCyte™ Zoom Software (Essen BioScience, Ann Arbor, Mich., USA).

[17] = molecular target: T5, wild type (glycosylated) PD-1 expressed …; assay: flow cytometry on 293T cells expressing wild type PD-1 against 293T cells expressing 4NQ PD-1, labeled secondary antibody
Description: as §1

[18] = molecular target: T6, N49Q mutant PD-1 expressed on 293T …; assay: flow cytometry on 293T cells expressing the PD-1 variant, anti-mouse IgG-PE secondary, DAPI-negative population gated; percent of cells right of the dashed gate; 293T blank cells give 2.71
Description: as §1

[19] = molecular target: T8, N74Q mutant PD-1 expressed on 293T …; assay: as above
Description: as §1

[20] = molecular target: T9, N116Q mutant PD-1 expressed on 293T …; assay: as above
Description: as §1

[21] = molecular target: B1; assay: as above
Description: as §1

Binder: B1
binding result [1]: no binding

Binder: B2
binding result [2]: no binding (tested: 0.5 µg protein on the blot)
binding result [3]: no binding (tested: 0.5 µg protein on the blot)
Kd [4]: 296 nM
koff [4]: 0.0053 s⁻¹
kon [4]: 17900 M⁻¹ s⁻¹
fold MFI on wild type PD-1 against unglycosylated 4NQ mutant PD-1 [5]: ~43 fold
MFI [6]: 1140 MFI
MFI [7]: 32 MFI
MFI [8]: 413 MFI
MFI [9]: 29 MFI
MFI [10]: 31 MFI
MFI [11]: 26 MFI
binding result [12]: no binding
binding result [13]: no binding
binding result [14]: no binding
binding result [15]: no binding
EC50 [16]: 0.11 µg/mL
fold MFI against binding to the unglycosylated 4NQ mutant PD-1 [17]: ~43 times
Unit (%) (cells in the positive gate) [18]: 4.6%
Unit (%) (cells in the positive gate) [19]: 7.71%
Unit (%) (cells in the positive gate) [20]: 4.12%
Unit (%) (cells in the positive gate) [21]: 1.82%
